We go through four molecules from patent US20190309084A1 (ALLIGATOR BIOSCIENCE, published 2019).

Assay [1] has as its target T1, Human GITR (Acro Biosystems, #GIR-H5228) (human, UniProt Q9Y5U5 26-161).
T1 construct: Bought recombinant protein, amine-coupled to the sensor tips; also called hGITR
T1 sequence: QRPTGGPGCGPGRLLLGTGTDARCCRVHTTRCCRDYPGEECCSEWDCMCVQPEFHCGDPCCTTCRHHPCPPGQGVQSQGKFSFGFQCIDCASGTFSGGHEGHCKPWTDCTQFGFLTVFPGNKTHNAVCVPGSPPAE
Briefly: BLI (Octet RED96), GITR amine-coupled to AR2G tips, bispecific as analyte, 1:1 fit.

The target of assay [2] is T2, GITR-hFc (R&D Systems, #689-GR) (human, UniProt Q9Y5U5 26-161).
T2 construct: Bought; also called Human GITR (coated in ELISA plates); not shown: human Fc part of a bought fusion protein
T2 sequence: T1 sequence
Briefly: dual ELISA: GITR-hFc coated, bispecific titrated, biotinylated CTLA-4-mFc then streptavidin-HRP, luminescence. For orientation: In an ELISA, binding on a coated surface is turned into a signal by an enzyme label.

Assay [3] deals with T2, GITR-hFc (R&D Systems, #689-GR). The assay can be described thus: dual ELISA: GITR-hFc coated, bispecific titrated, detected with biotinylated CTLA-4-mFc + streptavidin-HRP (signal needs binding to both targets); afucosylated IgG1; dual ELISA, signal needs both GITR and CTLA-4.
Assay [4] has the same target. Briefly: dual ELISA: GITR-hFc coated, bispecific titrated, detected with biotinylated CTLA-4-mFc + streptavidin-HRP (signal needs binding to both targets); wildtype IgG1; dual ELISA, signal needs both GITR and CTLA-4.
Assay [5] deals with T3, human CTLA-4 (ACRO Biosystems, #CT4-H5229) (human, UniProt P16410 38-152).
T3 construct: Bought recombinant protein, used as analyte in solution; also called hCTLA-4
Briefly: BLI (Octet RED96), bispecific captured on anti-hIgG Fc (AHC) tips, hCTLA-4 as analyte, 1:1 fit. A general note: BLI is a label-free optical method that tracks binding on a fibre tip over time.

Residue numbers refer to the chain shown, from its start.

T3 sequence (P16410 38-152 limits assumed): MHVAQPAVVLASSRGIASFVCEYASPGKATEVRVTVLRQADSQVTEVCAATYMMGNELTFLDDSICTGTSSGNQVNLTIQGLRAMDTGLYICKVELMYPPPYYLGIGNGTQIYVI

B1: GITR/CTLA-4 bispecific antibody 2404/2405 (bispecific antibody, IgG1)
VH: EVQLLESGGGLVQPGGSLRLSCAASGFTFSYSSMSWVRQAPGKGLEWVSYIGSGGSHTYYADSVKGRFTISRDNSKNTLYLQMNSLRAEDTAVYYCARYSYYFDYWGQGTLVTVSS
light: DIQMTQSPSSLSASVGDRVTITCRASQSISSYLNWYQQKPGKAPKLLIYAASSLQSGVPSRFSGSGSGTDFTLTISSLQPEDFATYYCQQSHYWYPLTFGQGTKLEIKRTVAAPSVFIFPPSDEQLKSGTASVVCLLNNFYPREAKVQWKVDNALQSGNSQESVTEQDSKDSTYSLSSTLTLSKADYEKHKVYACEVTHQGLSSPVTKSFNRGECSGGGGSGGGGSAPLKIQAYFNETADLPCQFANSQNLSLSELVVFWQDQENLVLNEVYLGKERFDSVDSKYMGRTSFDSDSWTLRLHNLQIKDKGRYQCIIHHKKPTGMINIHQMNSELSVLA
In assay [1], B1 gave a Kd of 1.67 nM, a koff of 0.000423 s⁻¹ and a kon of 254000 M⁻¹ s⁻¹. In addition, in assay [2], the half-maximal effective concentration (EC50 (read off the curve)) was roughly 0.6 nM.

B2: GITR/CTLA-4 bispecific antibody 2348/2349 (bispecific antibody)
VH: EVQLLESGGGLVQPGGSLRLSCAASGFTFGYYYMSWVRQAPGKGLEWVSGISSPSSYTYYADSVKGRFTISRDNSKNTLYLQMNSLRAEDTAVYYCARYYGSYFDYWGQGTLVTVSS
light: DIQMTQSPSSLSASVGDRVTITCRASQAISAYLNWYQQKPGKAPKLLIYAASSLQSGVPSRFSGSGSGTDFTLTISSLQPEDFATYYCQQSYGYYLYTFGQGTKLEIKRTVAAPSVFIFPPSDEQLKSGTASVVCLLNNFYPREAKVQWKVDNALQSGNSQESVTEQDSKDSTYSLSSTLTLSKADYEKHKVYACEVTHQGLSSPVTKSFNRGECSGGGGSGGGGSAPLKIQAYFNETADLPCQFANSQNLSLSELVVFWQDQENLVLNEVYLGKERFDSVDSKYMGRTSFDSDSWTLRLHNLQIKDKGRYQCIIHHKKPTGMINIHQMNSELSVLA
notes: Anti-GITR IgG with CD86 mutant 1040 fused to the C-terminus of the kappa chain
In assay [1], B2 came in with an equilibrium dissociation constant (Kd) of 0.346 nM, a koff of 5.28e-05 s⁻¹ and a kon of 153000 M⁻¹ s⁻¹. Moreover, the concentration giving a half-maximal response (EC50 (read off the curve)) in assay [2] was roughly 1 nM.

B3: GITR/CTLA-4 bispecific antibody 2372/2373, afucosylated IgG1 format (bispecific antibody)
VH: EVQLLESGGGLVQPGGSLRLSCAASGFTFSGYSMGWVRQAPGKGLEWVSAISGSGGSTYYADSVKGRFTISRDNSKNTLYLQMNSLRAEDTAVYYCARYPWGYYFDYWGQGTLVTVSS
light: B2 light with A28G, S30R, A51V, S91Y, G93Y, Y94P, Y95P, Y97S
modifications: afucosylated Fc domain
In the case of B3, in assay [3], the EC50 came to 0.54 nM.

B4: GITR/CTLA-4 bispecific antibody 2372/2373, wildtype IgG1 format (bispecific antibody)
VH: B3 VH
light: B2 light with A28G, S30R, A51V, S91Y, G93Y, Y94P, Y95P, Y97S
Turning to B4, the half-maximal effective concentration (EC50) in assay [4] was found to be 0.64 nM. For the same molecule, in assay [5], the dissociation constant (Kd) came out at 2.9 nM, the koff was 0.000551 s⁻¹ and the on-rate constant (kon) turned out to be 190000 M⁻¹ s⁻¹. Besides, in assay [1], the Kd amounted to 0.608 nM, the off-rate constant (koff) stood at 0.000214 s⁻¹ and the kon was 351000 M⁻¹ s⁻¹. The half-maximal effective concentration (EC50 (read off the curve)) in assay [2] is roughly 0.5 nM.

By Kd is commonly meant the free concentration of one partner at which half of the binding sites on the other are occupied at equilibrium, for simple one-to-one binding. What is called koff is the first-order rate constant of dissociation. As a reminder, the kon is the rate constant with which the complex forms. Low readings indicate slow association, high ones fast association. By EC50 (read off the curve) is commonly meant the concentration at which the effect is half-maximal. A low value points to greater potency. One may read the EC50 as the concentration that produces a half-maximal response.
